Laboratory results as given in patent US20180017550.

Key:
[1] = test system: Human casein kinase II (CK), cell-free expressed with C-terminal HSV epitope tag and polyhistidine tag
[2] = molecular target: human p53 oncoprotein (cellular tumor antigen p53), cell-free expressed from pETBlue-2 with C-terminal HSV epitope tag and polyhistidine tag (UniProt P04637)
[3] = molecular target: human MDM2 (ubiquitin-protein ligase E3 MDM2), cell-free expressed with C-terminal HSV epitope tag and polyhistidine tag (UniProt Q00987)
[4] = molecular target: human protein kinase A catalytic subunit alpha, cell-free expressed with C-terminal HSV epitope tag and polyhistidine tag (UniProt P17612)

human recombinant Src pp60 tyrosine kinase (Invitrogen Corporation)
phosphorylation of photo-transferred protein on microarray, anti-phosphotyrosine (RC20) detection [1]: significant phosphorylation of CK and PKA
phosphorylation of photo-transferred protein on microarray, anti-phosphotyrosine (RC20) detection [2]: p53 is not phosphorylated by either kinase
phosphorylation of photo-transferred protein on microarray, anti-phosphotyrosine (RC20) detection [3]: Both kinases heavily phosphorylate the MDM protein
phosphorylation of photo-transferred protein on microarray, anti-phosphotyrosine (RC20) detection [4]: significant phosphorylation of CK and PKA
